Measurements reported in patent US20040001822A1, “Y1-isolated molecules comprising epitopes containing sulfated moieties, antibodies to such epitopes, and uses thereof” (priority 2000, published 2004).

B1: CONY1: scFv derived from Y1 scFv with the myc tag replaced by lysine, alanine, lysine (KAK), SEQ ID NO: 204 (protein, listed as Homo sapiens)
scFv: MKYLLPTAAAGLLLLAAQPAMAEVQLVESGGGVVRPGGSLRLSCAASGFTFDDYGMSWVRQAPGKGLEWVSGINWNGGSTGYADSVKGRFTISRDNAKNSLYLQMNSLRAEDTAVYYCARMRAPVIWGQGTLVTVSRGGGGSGGGGSGGGGSSELTQDPAVSVALGQTVRITCQGDSLRSYYASWYQQKPGQAPVLVIYGKNNRPSGIPDRFSGSSSGNTASLTITGAQAEDEADYYCNSRDSSGNHVVFGGGTKLTVLGAAAKAK
B2: Y17 scFv: second scFv clone binding platelets and myelogenous leukemia cell lines, SEQ ID NO: 203 (protein, listed as Homo sapiens)
scFv: MKYLLPTAAAGLLLLAAQPAMAEVQLVESGGGVVRPGGSLRLSCAASGFTFDDYGMSWVRQAPGKGLEWVSGINWNGGSTGYADSVKGRFTISRDNAKNSLYLQMNSLRAEDTAVYYCARLTHPYFWGQGTLVTVSRGGGGSGGGGSGGGGSSELTQDPAVSVALGQTVRITCQGDSLRSYYASWYQQKPGQAPVLVIYGKNNRPSGIPDRFSGSSSGNTASLTITGAQAEDEADYYCNSRDSSGNHVVFGGGTKLTVLGAAAEQKLISEEDLNGAA

Legend:
MOLT-4 cells = test: T-ALL (MOLT4) model in SCID mice; type: in vivo
Protocol: The in vivo mouse model for T-ALL uses SCID mice (Jackson Laboratories) injected with MOLT4 cells derived from a T cell leukemia patient.
In one experiment, SCID mice were pretreated with 100 mg/kg Cytoxan (CTX, Cycloposphamid for injection, Mead Johnson). Eleven days after CTX injection, MOLT-4 cell were injected intravenously into the tail vein. Control mice were injected with PBS alone. One week post-MOLT-4 injection mice were injected with CONY1-Doxorubicin, which is a conjugate between scFv CON Y1 polypeptide, having KAK amino acid residues at its carboxy end and doxorubicin via a short organic linker; CONY1, which is a scFv antibody fragment derived from Y1 scFv in which the DNA sequences encoding the myc tag of Y1 were deleted and replaced with a DNA sequence encoding the amino acids lysine, alanine, lysine (KAK); or free Doxorubicin. The mice were injected three times per week for three weeks. […] (Table M).
Mice started to die 32 days post cell inoculation, and the surviving mice were sacrificed at this time. Bone marrow cells were analyzed by flow cytometry using anti-human CD44-FITC and Y1-Biotin/SAV-PE. Blood samples from several animals were monitored for platelet and white blood cell count. Livers were weighted and examined for tumor appearance. Other organs were also examined for tumor appearance.
In a second experiment, SCID mice were i.v. injected with 2×10^7 MOLT-4 cells/mouse, 5 days post treatment with cyclophosphamide. Anti-cancer agents or PBS (negative control animals) were injected i.v. three times/week from day 5 post MOLT-4 cells injection and onward. On day 35, blood was drawn from the animals, the animals were sacrificed, and their livers were excised and weighed. In the untreated, PBS-treated MOLT-4 cell-bearing animals, the liver presented with a very massive tumor growth, and its size was increased 2-3-fold relative to PBS control uninfected animals. In this experiment, there were five treatment groups:
In parallel, portions of liver tissue were taken for histology and cell harvesting for FACS analysis. The survival rate of another group of treated animals was recorded relative to that of control untreated mice.
In a third experiment, using the identical SCID/MOLT-4 protocol, there were 6 groups: […]

KG-1 cells = test: AML KG-1 model in NOD/SCID mice; type: in vivo
Protocol: The in vivo mouse model for human AML uses SCID/NOD mice (Jackson Laboratories) inoculated with KG-1 cells derived from a human AML cell line.
In a first experiment, NOD/SCID mice were pretreated with 100 mg/kg CYTOXAN®. Four days post CYTOXAN® injection, KG-1 cells were injected intravenously into the tail vein of six groups of mice. (Table N, Groups 2 and 5-9). One group of mice (Table N, Group 1) was injected with PBS alone (control).
Beginning 19 days post KG-1 injection mice were treated with: CONY1, Doxorubicin, CONY1-Doxorubicin conjugate, or Mylotarg®. (Mylotarg® is a monoclonal antibody (anti CD33) conjugated chemically to calcheamicin recently approved by the FDA for treatment of AML patients age 60 and over in a first relapse.) Mice were treated once or three times per week for three weeks. […]
Mice were sacrificed from 60 to 65 days post cell injection. Bone marrow samples were analyzed by flow cytometry using mouse anti human CD34-FITC (IQP 144F) (or anti CD44-FITC (MCA89F, Serotec)) and Y1-Biotin/SAV-PE. […]
An additional experiment was performed in which SCID-NOD mice were i.v. injected with 3×10^4 MOLT-4 cells/mouse 5 days post treatment with cyclophosphamide. […] Bone marrow was extracted and analyzed by FACS analysis using a commercially available antiCD44 antibody for the detection of MOLT-4 cells in the mice bone marrow cell population.

[1] = Pharmacokinetics of 125I-CONY1 after intravenous injection; type: in vivo, Male Balb-C mice
Protocol: Two to four mice were used per time point. […] Organ/tissue total and specific radioactivity values were calculated.

[2] = target: T1, GPIb (glycocalicin) derived from platelets (Homo sapiens, UniProt P07359); test: ELISA to glycocalicin, monomer versus cysteine dimer; type: binding
T1 construct: glycocalicin (soluble, extracellular fragment of GPIbα); from tissue; host or cells: human platelets
Protocol: An ELISA assay was performed to ascertain the differences in binding between the monomer (the Y1 scFv-also known as Y1-kak) and the dimer Y1-cys-kak (the cysteine dimer) for antigen GPIb (glycocalicin) derived from platelets. A polyclonal anti single chain antibody and/or a novel polyclonal anti-VL (derived from rabbits) and anti-rabbit HRP, were used to detect the binding to GPIb. […] For instance, to reach 0.8 OD units 12.8 μg/ml of monomer was used compared to only 0.1 μg/ml of dimer.
100 ml of purified glycocalicin was incubated in a 96 flat well maxisorp plates, overnight at 4 degrees celsius. The plate was washed with PBST (PBS+0.05% tween) 3 times, then […] of PBST-milk (PBST+2% Non fat milk), for 1 hr at room temperature. The plate was washed with PBST, and the monomer or dimer (100 ml) was added in PBST-milk at different concentrations for 1 hr at room temp. Then the plate was washed and anti-VL polyclonal (derived from immunized rabbits with VL derived from Y1) (1:100 diluted in PBST-milk) was added for an hour. The plate was washed and anti-rabbit HRP was added for an additional hour. The plate was washed 5 times and 100 μl TMB substrate was added for approximately 15 minutes then 100 μl of 0.5 H2SO4 was added to stop the reaction. The optical density of the plate was measured at 450 nm in an ELISA reader.

washed platelets = test: Ristocetin-induced agglutination of washed platelets after preincubation with scFv; type: cell-based, human
Protocol: Aggregation is determined in PRP due to the presence of thrombotic agents, while agglutination is determined in washed platelets. The effect of Y1 (scFv) on agglutination of washed platelets was tested at various concentrations of Y1. Platelets were pre-incubated with Y1 scFv, Y17 scFv, Y16-scFv, or a control TM-1 scFv for 4 min at 37° C. before being exposed to ristocetin, an inducer of platelet agglutination and aggregation.
Platelet concentrate in acid-citrate-dextrose (ACD) was obtained from a blood bank, platelets were isolated, washed once in buffer containing ACD and saline in a ratio of 1:7. The platelets were centrifuged at 800 g for 10 min after each wash and were resuspended in Tyrodes solution (2 mM MgCl2, 137 mM NaCl, 2.68 mM KCl, 3 mM NaH2PO4, 0.1% glucose, 5 mM Hepes and 0.35% albumin, pH 7.35) and count the number of cells.
(§1) For platelet aggregation studies, platelet rich plasma (PRP) and washed platelets were stirred at 500 rpm at 37° C. in whole blood Lumiaggregometer (Chronolog, Havertown,Pa.). The difference in light transmission through the platelet suspension and suspending medium was taken as 100% aggregation. The effect of Y1 on platelet aggregation was evaluated by addition of different concentration of Y1 before the addition of agonist, and the effect was recorded for four minutes.
The effect of Y17-scFv on vWF-dependent agglutination of platelets was tested at different concentrations of Y17.

[3] = tested on: platelet-rich-plasma (PRP); test: Ristocetin-induced aggregation of platelet-rich plasma after preincubation with scFv; type: cell-based, human; conditions: scFv 38 μg/ml
Protocol: The effect of Y1 (scfv) on aggregation of platelet-rich-plasma (PRP) was tested at various concentrations of Y1. PRP was pre-incubated with Y1 scfv, Y17 scfv, or a control sTM-1cFv for 4 min at 37° C. before being exposed to ristocetin, an inducer of platelet agglutination and aggregation. A reversible inhibitory effect was observed when scFv was added to PRP prior to the addition of ristocetin, and it was dose dependent.
Blood was collected into a tube containing 3.8% sodium citrate. Platelet-rich plasma was prepared by centrifugation at 250×g for 10 minutes.
as §1

[4] = scFv 25 μg/ml, ristocetin = 100% agglutination

Row | Molecule | liver weight versus free Doxorubicin or untreated (MOLT-4 cells; first experiment, three times per week for three weeks, sacrifice 32 days post cell inoculation) | survival (MOLT-4 cells; mice which received continued treatment) | liver weights / tumor growth in the liver (MOLT-4 cells; second experiment, day 35, i.v. three times/week, CONY1 and conjugate 75 μg/mouse, Doxorubicin 0.1 mg/kg) | tumor growth (based on liver weights) (MOLT-4 cells; third experiment, CONY1 scFv 75 μg/mouse, Y1-IgG 5 μg/mouse) | prevalence of cancer cells in the bone marrow (KG-1 cells; additional experiment, day 60, CONY1 scFv 75 μg/mouse three times/week, Mylotarg 7 μg/mouse once a week) | percentage of KG-1 cells in bone marrow (KG-1 cells; first experiment, KG-1 cells incubated in vitro with scFv before injection (groups 3 and 4)) | half-life of blood clearance, first compartment ([1]; 15 μg per mouse i.v., plasma TCA precipitable radioactivity, two-compartment model) [h] | half-life of blood clearance, second compartment ([1]; 15 μg per mouse i.v., two-compartment model) [h] | distribution between plasma and erythrocytes ([1]; blood versus plasma radioactivity) | specific uptake in body tissues ([1]; liver, lung, kidney, spleen, bone marrow, 5 minutes to 24 hours) | concentration to reach 0.8 OD units [2] [µg/mL] | inhibition of vWF-dependent platelet agglutination induced by ristocetin (washed platelets; final concentration of 10, 25 or 50 μg/ml) | % agglutination (washed platelets; [4]) [%] | % inhibition (washed platelets; [4]) [%] | % aggregation [3] [%] | % inhibition ([3]; listed as Y17)
1 | B1 | weighted significantly less | prolonged | markedly inhibited tumor growth in the liver | inhibited tumor growth | had no effect | significantly lower percentage | 0.583 | 3.17 | practically all of the CONY-1 resided in the plasma and did not adhere to erythrocytes | no major specific uptake | 12.8 | – | – | – | – | –
2 | B2 | – | – | – | – | – | – | – | – | – | – | – | did not inhibit | 85 | 15 | 100 | did not inhibit
